Reference: publication PMC12848000

Columns and labels:
[1] = target: ^P32-His-PKA-N8CUL1/RBX1 (CUL1/RBX1 neddylated with His-PKA-NEDD8, 32P-labelled) (UniProt Q13616)
[2] = target: neddylated CUL1/RBX1 (StrepII2x-^N8CUL1/RBX1), wild type (UniProt Q13616); test: SPR; StrepII2x-^N8CUL1/RBX1 captured on a Strep-Tactin CM5 chip (~100 RU), CSN injected in single cycle (0.625-80 nM, 80 s contact), 25 C, 10 mM HEPES pH 7.4, 150 mM NaCl, 0.05% Tween 20, 1 mM TCEP; steady-state fit, 1:1 Langmuir
[3] = target: non-neddylated CUL1/RBX1 (StrepII2x-CUL1/RBX1), wild type (human) (UniProt Q13616); test: SPR; StrepII2x-CUL1/RBX1 (non-neddylated) captured on a Strep-Tactin CM5 chip (~100 RU), CSN injected in single cycle (40-5120 nM, 180 s contact), 25 C, HBS-P+ with 1 mM TCEP; steady-state fit, 1:1 Langmuir
non-neddylated CUL1/RBX1 (StrepII2x-CUL1/RBX1), wild type (human), sequence (Q13616 whole entry, chain 1 of 2): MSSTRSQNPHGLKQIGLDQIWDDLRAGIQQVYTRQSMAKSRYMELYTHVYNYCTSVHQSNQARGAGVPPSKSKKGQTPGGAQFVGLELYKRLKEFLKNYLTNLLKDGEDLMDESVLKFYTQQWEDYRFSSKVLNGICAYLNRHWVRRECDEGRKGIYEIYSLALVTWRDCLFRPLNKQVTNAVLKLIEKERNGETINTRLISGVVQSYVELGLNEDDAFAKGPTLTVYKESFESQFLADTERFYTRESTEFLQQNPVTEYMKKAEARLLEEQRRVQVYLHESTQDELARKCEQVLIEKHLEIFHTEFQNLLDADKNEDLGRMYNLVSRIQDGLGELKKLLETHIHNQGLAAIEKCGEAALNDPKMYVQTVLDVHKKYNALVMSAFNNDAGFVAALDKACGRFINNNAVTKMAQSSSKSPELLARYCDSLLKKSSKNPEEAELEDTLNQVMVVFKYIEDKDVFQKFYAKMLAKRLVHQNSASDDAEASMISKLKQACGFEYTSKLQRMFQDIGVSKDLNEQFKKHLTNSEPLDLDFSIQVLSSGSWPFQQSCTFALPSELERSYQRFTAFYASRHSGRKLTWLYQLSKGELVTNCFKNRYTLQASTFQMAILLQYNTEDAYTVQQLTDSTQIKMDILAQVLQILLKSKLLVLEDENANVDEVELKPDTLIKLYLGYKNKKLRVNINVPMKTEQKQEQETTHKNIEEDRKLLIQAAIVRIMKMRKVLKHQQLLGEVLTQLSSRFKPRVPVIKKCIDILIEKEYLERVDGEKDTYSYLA
non-neddylated CUL1/RBX1 (StrepII2x-CUL1/RBX1), wild type (human), sequence (P62877 whole entry, chain 2 of 2, further chain): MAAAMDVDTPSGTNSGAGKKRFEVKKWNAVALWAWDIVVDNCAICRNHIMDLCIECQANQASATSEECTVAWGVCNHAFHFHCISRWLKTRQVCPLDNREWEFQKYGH

^P32-His-PKA-N8CUL1/RBX1 (CUL1/RBX1 neddylated with His-PKA-NEDD8, 32P-labelled), sequence (Q13616 whole entry, chain 1 of 3): as the sequence (Q13616 whole entry, chain 1 of 2) above
^P32-His-PKA-N8CUL1/RBX1 (CUL1/RBX1 neddylated with His-PKA-NEDD8, 32P-labelled), sequence (P62877 whole entry, chain 2 of 3, further chain): as the sequence (P62877 whole entry, chain 2 of 2, further chain) above
^P32-His-PKA-N8CUL1/RBX1 (CUL1/RBX1 neddylated with His-PKA-NEDD8, 32P-labelled), sequence (Q15843 1-76, chain 3 of 3, further chain): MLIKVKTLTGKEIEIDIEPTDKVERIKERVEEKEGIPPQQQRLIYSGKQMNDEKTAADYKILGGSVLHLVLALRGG
neddylated CUL1/RBX1 (StrepII2x-^N8CUL1/RBX1), wild type, sequence (Q13616 whole entry, chain 1 of 3): as the sequence (Q13616 whole entry, chain 1 of 2) above
neddylated CUL1/RBX1 (StrepII2x-^N8CUL1/RBX1), wild type, sequence (P62877 whole entry, chain 2 of 3, further chain): as the sequence (P62877 whole entry, chain 2 of 2, further chain) above
neddylated CUL1/RBX1 (StrepII2x-^N8CUL1/RBX1), wild type, sequence (Q15843 1-76, chain 3 of 3, further chain): as the sequence (Q15843 1-76, chain 3 of 3, further chain) above

Row | in vitro deneddylation activity, normalised to CSN^5WT [1] [% reduction] | Kd [2] [nM] | Kd [3] [nM] | Substance
1 | > 50 | – | – | CSN^5T105F (9CSN with CSN5 T105F) (from UniProt Q13098 1-491; P61201 1-443; Q9UNS2 1-423; Q9BT78 1-406; Q92905 1-334; Q7L5N1 1-327; Q9H9Q2 1-264; Q99627 1-209; Q8WXC6 1-57) (complex)
2 | – | 6 | 90 | 8CSN^5H138A (CSN^5H138A complex without CSNAP: CSN1-8, CSN5 H138A) (from UniProt Q13098 1-491; P61201 1-443; Q9UNS2 1-423; Q9BT78 1-406; Q92905 1-334; Q7L5N1 1-327; Q9H9Q2 1-264; Q99627 1-209)
